# Results: patent US20230295238A1, “INSULIN RECEPTOR-MEDIATED ENHANCEMENT OF GENE TRANSFER” (THE SCRIPPS RESEARCH INSTITUTE, priority 2020, published 2023)
# Entries after “also recorded” stand apart in the source; their conditions may differ. Where two headings read alike, the source gives them in different places.
# Columns and labels:
# [1] = molecular target: S519(VIII)-AAV9 (enhanced AAV9), mosaic AAV9 vector with insulin-mimetic peptide S519 inserted in capsid VR-VIII (adeno-associated virus serotype 9); experiment: cell-based or functional assay
# HEK293T cells = type: cell-based, human; settings: FLuc-encoding eAAV9; luciferase activity 24 hpt
# [2] = Blood glucose after intramuscular injection in fasted mice; type: in vivo, mouse; settings: 0.5 U/kg intramuscular
# Protocol: Because of the physiological role of insulin in modulating blood glucose levels, we asked whether eAAV9, with its insulin-mimetic insertion, would exert a measurable effect on the blood glucose concentration of mice. Mice were fasted as described above, and blood glucose was measured by microsampling immediately before injection of vectors to obtain a baseline value. Mice were injected in the gastrocnemius muscle with 10^9 vg of WT AAV9, eAAV9, or, as a positive control, human insulin at 0.5 U/kg, a typical therapeutic dose for a patient with diabetes mellitus type 2 (FIG. 4D). Blood glucose was then measured at 45 min, 2 h, and 4 h post injection of vectors or insulin.
# Blood glucose measurement. At 4 hours before glucose measurement, mice were relocated to a cage with iso-PADS bedding (Envigo) with access to water but no food source. Mice were then anesthetized with isoflurane and their left hind limb was shaved. Blood glucose was measured with a Contour Next glucometer (Bayer) by puncturing the saphenous vein with a lancet and sampling 1 ul of venous blood by capillary action. After the first glucose measurement, mice were injected in the medial aspect of the right gastrocnemius muscle with either 10^9 vector genomes or 0.5 U/kg human insulin (Tocris). Subsequent blood glucose measurements were performed in the same way as the first. […]
# [3] = molecular target: human insulin receptor, endogenous on HEK293T / Control 293T cells (human) (UniProt P06213); experiment: cell-based or functional assay
# IR [4] = molecular target: T1, IR (Homo sapiens, UniProt P06213); settings: cited from earlier work
# IR [5] = molecular target: T1, IR; settings: cited from earlier work; remark: listed apart in the source
substance,measurement,setting,value
human IR ectodomain fused to an Fc tag (IR-Fc) (from UniProt P06213 28-956) (Fc fusion),"inhibition of eAAV9 transduction of HEK293T cells (luciferase activity 24 h after transduction), IC50",[1],0.6 nM
human insulin,IC50 of human insulin for inhibition of eAAV9 transduction,HEK293T cells,5.2 µg/mL
same,blood glucose,[2]; 2 and 4 hours,rebound effect
same,blood glucose,[2]; 45 min,sharp and statistically significant decrease
human insulin (Tocris) (from UniProt P01308 90-110) (ligand),"inhibition of eAAV9 transduction of HEK293T cells by human insulin (luciferase activity), IC50",[3],5.2 µg/mL
insulin-mimetic peptide GSLDESFYDWFERQLGKK (SEQ ID NO:8) [S371],Kd,IR [4]; read-out: affinity of binding to IR,~40 nM
same,activity on IR,IR [5],activates the receptor in the absence of insulin
"insulin-mimetic peptide, 36 amino acid linear peptide SLEEEWAQVECEVYGRGCPSGSLDESFYDWFERQLG (SEQ ID NO:7) (SLEEEWAQVECEVYGRGCPSGSLDESFYDWFERQLG) [S519]",Kd,"IR [4]; human IR, read-out: Kd for IR",0.02 nM
same,activity on IR,IR [5],behaves as an agonist; also recorded: agonist activity on IR
